PMC8365315 (EBioMedicine, 2021)

Biological target: exportin 4 (XPO4) (UniProt Q9C0E2 1-1151)
Assay: SPR

Chain of exportin 4 (XPO4) (Q9C0E2 whole entry): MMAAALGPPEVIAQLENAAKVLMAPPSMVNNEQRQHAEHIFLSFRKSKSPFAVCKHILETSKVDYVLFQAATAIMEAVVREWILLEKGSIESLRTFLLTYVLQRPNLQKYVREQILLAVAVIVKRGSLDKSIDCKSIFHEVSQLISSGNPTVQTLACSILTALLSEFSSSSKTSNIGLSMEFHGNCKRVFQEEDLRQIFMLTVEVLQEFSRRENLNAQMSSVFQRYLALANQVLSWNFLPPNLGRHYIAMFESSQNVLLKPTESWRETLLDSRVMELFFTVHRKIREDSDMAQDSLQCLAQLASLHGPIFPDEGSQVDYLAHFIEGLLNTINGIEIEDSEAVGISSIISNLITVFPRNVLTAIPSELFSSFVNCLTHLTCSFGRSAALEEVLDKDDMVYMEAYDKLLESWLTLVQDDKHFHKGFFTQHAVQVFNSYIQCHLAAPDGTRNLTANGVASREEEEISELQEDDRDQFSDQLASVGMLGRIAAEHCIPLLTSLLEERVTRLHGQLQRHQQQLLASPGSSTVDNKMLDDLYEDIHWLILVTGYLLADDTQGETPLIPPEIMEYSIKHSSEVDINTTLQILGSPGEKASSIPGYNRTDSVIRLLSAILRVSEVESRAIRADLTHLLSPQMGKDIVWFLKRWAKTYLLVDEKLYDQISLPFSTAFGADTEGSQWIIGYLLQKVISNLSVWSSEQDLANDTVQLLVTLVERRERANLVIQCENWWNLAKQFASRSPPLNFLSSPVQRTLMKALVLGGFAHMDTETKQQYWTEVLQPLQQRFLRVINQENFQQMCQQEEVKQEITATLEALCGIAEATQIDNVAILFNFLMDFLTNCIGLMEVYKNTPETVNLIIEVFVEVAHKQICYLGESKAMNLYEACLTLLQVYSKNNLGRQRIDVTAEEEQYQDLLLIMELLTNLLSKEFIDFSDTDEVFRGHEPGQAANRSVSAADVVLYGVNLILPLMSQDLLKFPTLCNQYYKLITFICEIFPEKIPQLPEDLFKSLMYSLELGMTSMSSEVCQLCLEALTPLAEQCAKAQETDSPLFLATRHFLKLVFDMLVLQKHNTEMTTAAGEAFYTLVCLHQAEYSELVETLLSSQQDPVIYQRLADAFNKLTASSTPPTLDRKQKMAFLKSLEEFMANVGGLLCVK

Kd: 4.88 nM
B1: SMAD3 (natural protein, UniProt P84022 1-425, looked up)
chain: MSSILPFTPPIVKRLLGWKKGEQNGQEEKWCEKAVKSLVKKLKKTGQLDELEKAITTQNVNTKCITIPRSLDGRLQVSHRKGLPHVIYCRLWRWPDLHSHHELRAMELCEFAFNMKKDEVCVNPYHYQRVETPVLPPVLVPRHTEIPAEFPPLDDYSHSIPENTNFPAGIEPQSNIPETPPPGYLSEDGETSDHQMNHSMDAGSPNLSPNPMSPAHNNLDLQPVTYCEPAFWCSISYYELNQRVGETFHASQPSMTVDGFTDPSNSERFCLGLLSNVNRNAAVELTRRHIGRGVRLYYIGGEVFAECLSDSAIFVQSPNCNQRYGWHPATVCKIPPGCNLKIFNNQEFAALLAQSVNQGFEAVYQLTRMCTIRMSFVKGWGAEYRRQTVTSTPCWIELHLNGPLQWLDKVLTQMGSPSIRCSSVS
